Source: article PMC9482650, “Quantitative fragmentomics allow affinity mapping of interactomes” (Nature Communications, 2022)

T1: SYNJ2BP, P57105
T1 sequence (P57105 8-110, limits assumed, looked up): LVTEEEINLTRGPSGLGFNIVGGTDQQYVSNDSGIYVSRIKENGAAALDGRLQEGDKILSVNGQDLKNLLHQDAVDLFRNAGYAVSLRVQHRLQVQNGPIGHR

T2: TJP3_3, O95049
T2 sequence (O95049 375-456, limits assumed, looked up): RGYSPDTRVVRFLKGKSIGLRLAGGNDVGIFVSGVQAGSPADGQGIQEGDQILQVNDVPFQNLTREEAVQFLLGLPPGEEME

T3: GRIP1_2, Q9Y3R0
T3 sequence (Q9Y3R0 145-248, limits assumed, looked up): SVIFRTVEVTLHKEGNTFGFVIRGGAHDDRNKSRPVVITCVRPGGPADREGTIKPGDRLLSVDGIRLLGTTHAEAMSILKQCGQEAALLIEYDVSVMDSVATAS

T4: APBA1_2, Q02410
T4 sequence (Q02410 742-832, limits assumed, looked up): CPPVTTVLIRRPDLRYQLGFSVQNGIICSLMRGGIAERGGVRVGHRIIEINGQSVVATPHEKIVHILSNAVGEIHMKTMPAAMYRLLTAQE

T5: DFNB31_3, Q9P202
T5 sequence (Q9P202 811-907, limits assumed, looked up): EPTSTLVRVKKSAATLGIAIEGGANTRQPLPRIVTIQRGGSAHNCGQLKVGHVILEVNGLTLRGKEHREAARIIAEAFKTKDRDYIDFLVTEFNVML

T6: GRIP1_3, Q9Y3R0
T6 sequence (Q9Y3R0 247-346, limits assumed, looked up): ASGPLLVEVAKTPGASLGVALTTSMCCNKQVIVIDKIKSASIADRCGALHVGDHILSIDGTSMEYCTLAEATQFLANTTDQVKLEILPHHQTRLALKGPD

T7: MPP7, Q5T2T1
T7 sequence (Q5T2T1 134-230, limits assumed, looked up): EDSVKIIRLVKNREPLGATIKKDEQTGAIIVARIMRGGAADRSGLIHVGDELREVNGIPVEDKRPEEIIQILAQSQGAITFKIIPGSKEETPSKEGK

T8: CARD11, Q9BXL7
T8 sequence (Q9BXL7 662-765, limits assumed, looked up): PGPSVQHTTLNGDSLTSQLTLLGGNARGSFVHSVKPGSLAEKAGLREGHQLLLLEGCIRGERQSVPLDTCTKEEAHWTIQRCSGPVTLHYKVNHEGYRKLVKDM

T9: LIN7C, Q9NUP9
T9 sequence (Q9NUP9 88-185, limits assumed, looked up): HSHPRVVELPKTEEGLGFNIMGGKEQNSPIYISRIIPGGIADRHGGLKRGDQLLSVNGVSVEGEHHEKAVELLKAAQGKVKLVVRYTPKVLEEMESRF

T10: GRIP1_5, Q9Y3R0
T10 sequence (Q9Y3R0 568-668, limits assumed, looked up): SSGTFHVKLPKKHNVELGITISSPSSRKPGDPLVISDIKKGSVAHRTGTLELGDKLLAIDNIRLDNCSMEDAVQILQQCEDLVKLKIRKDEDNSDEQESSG

B1: TMEM225B, P0DP42 (peptide)
chain: ETQVTAETVI
B2: DACT1, Q9NYF0 (peptide)
chain: SGSLKLMTTV

biological target: SCRIB_1, Q14160; assay: holdup assay; parameters: key: below the threshold = too weak to quantify, mostly under pKd 3.1 to 4; conditions: plain residues with an end cap or a label only (N-terminal biotin on a linker: ado-ado)
Sequence (Q14160 718-814): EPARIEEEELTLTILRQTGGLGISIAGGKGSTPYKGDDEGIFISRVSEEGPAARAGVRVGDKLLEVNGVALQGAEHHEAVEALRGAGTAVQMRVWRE

Binder	pKd
B1	4.24
B2	3.98

biological target: T1, SYNJ2BP, P57105; assay: holdup assay; parameters: key: below the threshold = too weak to quantify, mostly under pKd 3.1 to 4; conditions: plain residues with an end cap or a label only (N-terminal biotin on a linker: ado-ado)

Binder	pKd
B1	3.92
B2	4.3

biological target: T2, TJP3_3, O95049; assay: holdup assay; parameters: key: below the threshold = too weak to quantify, mostly under pKd 3.1 to 4; conditions: plain residues with an end cap or a label only (N-terminal biotin on a linker: ado-ado)

Binder	pKd
B1	below the threshold
B2	below the threshold

biological target: T3, GRIP1_2, Q9Y3R0; assay: holdup assay; parameters: key: below the threshold = too weak to quantify, mostly under pKd 3.1 to 4; conditions: plain residues with an end cap or a label only (N-terminal biotin on a linker: ado-ado)

Binder	pKd
B1	below the threshold
B2	below the threshold

biological target: GRIP2_3, Q9C0E4; assay: holdup assay; parameters: key: below the threshold = too weak to quantify, mostly under pKd 3.1 to 4; conditions: plain residues with an end cap or a label only (N-terminal biotin on a linker: ado-ado)
Sequence (Q9C0E4 238-339): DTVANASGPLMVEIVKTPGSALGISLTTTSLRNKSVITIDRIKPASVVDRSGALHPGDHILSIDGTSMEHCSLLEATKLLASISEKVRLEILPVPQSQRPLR

Binder	pKd
B1	below the threshold
B2	below the threshold

biological target: T4, APBA1_2, Q02410; assay: holdup assay; parameters: key: below the threshold = too weak to quantify, mostly under pKd 3.1 to 4; conditions: plain residues with an end cap or a label only (N-terminal biotin on a linker: ado-ado)

Binder	pKd
B1	below the threshold
B2	3.5

biological target: T5, DFNB31_3, Q9P202; assay: holdup assay; parameters: key: below the threshold = too weak to quantify, mostly under pKd 3.1 to 4; conditions: plain residues with an end cap or a label only (N-terminal biotin on a linker: ado-ado)

Binder	pKd
B1	4.03
B2	4.03

biological target: T6, GRIP1_3, Q9Y3R0; assay: holdup assay; parameters: key: below the threshold = too weak to quantify, mostly under pKd 3.1 to 4; conditions: plain residues with an end cap or a label only (N-terminal biotin on a linker: ado-ado)

Binder	pKd
B1	below the threshold
B2	below the threshold

biological target: FRMPD3, Q5JV73; assay: holdup assay; parameters: key: below the threshold = too weak to quantify, mostly under pKd 3.1 to 4; conditions: plain residues with an end cap or a label only (N-terminal biotin on a linker: ado-ado)
Sequence (Q5JV73 12-100): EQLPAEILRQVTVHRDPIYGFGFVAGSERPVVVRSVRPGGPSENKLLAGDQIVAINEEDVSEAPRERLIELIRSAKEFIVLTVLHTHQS

Binder	pKd
B1	below the threshold
B2	below the threshold

biological target: T7, MPP7, Q5T2T1; assay: holdup assay; parameters: key: below the threshold = too weak to quantify, mostly under pKd 3.1 to 4; conditions: plain residues with an end cap or a label only (N-terminal biotin on a linker: ado-ado)

Binder	pKd
B1	below the threshold
B2	below the threshold

biological target: SCRIB_2, Q14160; assay: holdup assay; parameters: key: below the threshold = too weak to quantify, mostly under pKd 3.1 to 4; conditions: plain residues with an end cap or a label only (N-terminal biotin on a linker: ado-ado)
Sequence (Q14160 857-960): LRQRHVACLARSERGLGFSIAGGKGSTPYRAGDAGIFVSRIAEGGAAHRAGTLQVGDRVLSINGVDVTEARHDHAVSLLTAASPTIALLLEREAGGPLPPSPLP

Binder	pKd
B1	below the threshold
B2	3.69

biological target: T8, CARD11, Q9BXL7; assay: holdup assay; parameters: key: below the threshold = too weak to quantify, mostly under pKd 3.1 to 4; conditions: plain residues with an end cap or a label only (N-terminal biotin on a linker: ado-ado)

Binder	pKd
B1	below the threshold
B2	below the threshold

biological target: DLG1_3, Q12959; assay: holdup assay; parameters: key: below the threshold = too weak to quantify, mostly under pKd 3.1 to 4; conditions: plain residues with an end cap or a label only (N-terminal biotin on a linker: ado-ado)
Sequence (Q12959 457-571): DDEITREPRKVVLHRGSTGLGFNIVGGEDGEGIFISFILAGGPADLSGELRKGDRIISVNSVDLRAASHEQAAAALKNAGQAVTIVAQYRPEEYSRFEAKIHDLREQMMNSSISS

Binder	pKd
B1	below the threshold
B2	3.55

biological target: GORASP2, Q9H8Y8; assay: holdup assay; parameters: key: below the threshold = too weak to quantify, mostly under pKd 3.1 to 4; conditions: plain residues with an end cap or a label only (N-terminal biotin on a linker: ado-ado)

Binder	pKd
B1	3.57
B2	4.32

biological target: SNX27, Q96L92; assay: holdup assay; parameters: key: below the threshold = too weak to quantify, mostly under pKd 3.1 to 4; conditions: plain residues with an end cap or a label only (N-terminal biotin on a linker: ado-ado)

Binder	pKd
B1	5.39
B2	4.35

biological target: GRIP2_7, Q9C0E4; assay: holdup assay; parameters: key: below the threshold = too weak to quantify, mostly under pKd 3.1 to 4; conditions: plain residues with an end cap or a label only (N-terminal biotin on a linker: ado-ado)
Sequence (Q9C0E4 934-1023): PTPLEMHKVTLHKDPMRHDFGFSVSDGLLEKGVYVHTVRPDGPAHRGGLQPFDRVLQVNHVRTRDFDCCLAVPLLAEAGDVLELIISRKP

Binder	pKd
B1	below the threshold
B2	below the threshold

biological target: LAP2, Q96RT1; assay: holdup assay; parameters: key: below the threshold = too weak to quantify, mostly under pKd 3.1 to 4; conditions: plain residues with an end cap or a label only (N-terminal biotin on a linker: ado-ado)
Sequence (Q96RT1 other isoform, or with tags, fused parts or gaps): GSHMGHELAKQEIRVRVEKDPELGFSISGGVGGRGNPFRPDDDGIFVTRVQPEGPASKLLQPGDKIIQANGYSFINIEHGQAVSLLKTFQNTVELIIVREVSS

Binder	pKd
B1	below the threshold
B2	below the threshold

biological target: GRID2IP_1, A4D2P6; assay: holdup assay; parameters: key: below the threshold = too weak to quantify, mostly under pKd 3.1 to 4; conditions: plain residues with an end cap or a label only (N-terminal biotin on a linker: ado-ado)
Sequence (A4D2P6 1-87): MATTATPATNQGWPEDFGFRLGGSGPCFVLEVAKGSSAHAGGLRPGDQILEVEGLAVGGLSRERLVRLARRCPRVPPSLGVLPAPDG

Binder	pKd
B1	below the threshold
B2	below the threshold

biological target: HTRA2, O43464; assay: holdup assay; parameters: key: below the threshold = too weak to quantify, mostly under pKd 3.1 to 4; conditions: plain residues with an end cap or a label only (N-terminal biotin on a linker: ado-ado)
Sequence (O43464 355-458): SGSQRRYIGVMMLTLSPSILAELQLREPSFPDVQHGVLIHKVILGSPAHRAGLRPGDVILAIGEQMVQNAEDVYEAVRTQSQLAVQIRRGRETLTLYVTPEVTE

Binder	pKd
B1	below the threshold
B2	below the threshold

biological target: PDZRN4_1, Q6ZMN7; assay: holdup assay; parameters: key: below the threshold = too weak to quantify, mostly under pKd 3.1 to 4; conditions: plain residues with an end cap or a label only (N-terminal biotin on a linker: ado-ado)
Sequence (Q6ZMN7 213-318): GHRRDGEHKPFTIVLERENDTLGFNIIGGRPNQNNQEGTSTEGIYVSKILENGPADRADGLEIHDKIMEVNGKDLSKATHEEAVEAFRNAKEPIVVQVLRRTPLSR

Binder	pKd
B1	below the threshold
B2	below the threshold

biological target: MAGI2_4, Q86UL8; assay: holdup assay; parameters: key: below the threshold = too weak to quantify, mostly under pKd 3.1 to 4; conditions: plain residues with an end cap or a label only (N-terminal biotin on a linker: ado-ado)
Sequence (Q86UL8 772-865): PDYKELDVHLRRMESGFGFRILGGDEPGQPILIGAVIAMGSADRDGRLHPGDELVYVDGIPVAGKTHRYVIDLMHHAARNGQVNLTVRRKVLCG

Binder	pKd
B1	below the threshold
B2	4.92

biological target: MAGI2_2, Q86UL8; assay: holdup assay; parameters: key: below the threshold = too weak to quantify, mostly under pKd 3.1 to 4; conditions: plain residues with an end cap or a label only (N-terminal biotin on a linker: ado-ado)
Sequence (Q86UL8 410-522): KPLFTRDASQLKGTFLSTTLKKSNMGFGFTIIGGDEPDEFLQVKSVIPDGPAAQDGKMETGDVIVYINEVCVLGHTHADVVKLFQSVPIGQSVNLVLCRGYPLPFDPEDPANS

Binder	pKd
B1	below the threshold
B2	5.28

biological target: DLG4_3, P78352; assay: holdup assay; parameters: key: below the threshold = too weak to quantify, mostly under pKd 3.1 to 4; conditions: plain residues with an end cap or a label only (N-terminal biotin on a linker: ado-ado)
Sequence (P78352 306-403): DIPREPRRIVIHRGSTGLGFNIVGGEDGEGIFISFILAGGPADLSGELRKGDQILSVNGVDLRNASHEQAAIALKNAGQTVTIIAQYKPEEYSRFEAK

Binder	pKd
B1	below the threshold
B2	4.26

biological target: AHNAK1, Q09666; assay: holdup assay; parameters: key: below the threshold = too weak to quantify, mostly under pKd 3.1 to 4; conditions: plain residues with an end cap or a label only (N-terminal biotin on a linker: ado-ado)
Sequence (Q09666 4-100): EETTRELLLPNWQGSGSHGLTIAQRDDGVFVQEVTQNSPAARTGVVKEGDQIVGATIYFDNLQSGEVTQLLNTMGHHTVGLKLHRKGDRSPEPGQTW

Binder	pKd
B1	below the threshold
B2	below the threshold

biological target: T9, LIN7C, Q9NUP9; assay: holdup assay; parameters: key: below the threshold = too weak to quantify, mostly under pKd 3.1 to 4; conditions: plain residues with an end cap or a label only (N-terminal biotin on a linker: ado-ado)

Binder	pKd
B1	4.07
B2	below the threshold

biological target: T10, GRIP1_5, Q9Y3R0; assay: holdup assay; parameters: key: below the threshold = too weak to quantify, mostly under pKd 3.1 to 4; conditions: plain residues with an end cap or a label only (N-terminal biotin on a linker: ado-ado)

Binder	pKd
B1	below the threshold
B2	below the threshold

biological target: TJP2_1, Q9UDY2; assay: holdup assay; parameters: key: below the threshold = too weak to quantify, mostly under pKd 3.1 to 4; conditions: plain residues with an end cap or a label only (N-terminal biotin on a linker: ado-ado)
Sequence (Q9UDY2 24-128): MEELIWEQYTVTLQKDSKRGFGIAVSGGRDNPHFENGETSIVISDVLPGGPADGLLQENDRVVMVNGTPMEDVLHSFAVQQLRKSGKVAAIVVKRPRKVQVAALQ

Binder	pKd
B1	below the threshold
B2	3.58
